The target of data set [1] is T1, CS from A. comosus (nmCS) (Ananas comosus, UniProt A0A6P5F0R3).
T1 construct: gene LOC109710921; non-mitochondrial CS with C-terminal LE-HHHHHH tag, expressed in E. coli BL21(DE3); octamer (ring of four dimers); C-terminus extends to residue 513
Briefly: mass photometry, oligomeric state shift. It counts as binding. The settings on record: 10 min preincubation with high acetyl-CoA; octamers shift to mix of hexamers and octamers.

Data set [2] concerns the target CS from a Myxococcota species (a Myxococcota species). Briefly: mass photometry; self-assembly of the purified protein in solution; final concentration 12.5 to 50 nM; PBS or 20 mM Tris, 200 mM NaCl pH 7.5; OneMP or TwoMP.
Data set [3] addresses citrate synthase (type III CS) from M. sulfidovorans (M. sulfidovorans). Described as above.
In data set [4] the target is citrate synthase from M. sulfidovorans W150A (M. sulfidovorans). The description is as above.
Data set [5] has as its target non-mitochondrial citrate synthase (nmCS) of Ananas comosus (Ananas comosus). Described as above.
Data set [6] shares this target. Briefly: mass photometry; with high quantities of acetyl-CoA: prediluted protein (2 µM) incubated for 10 min with the substrate, same concentration in the buffer of the gasket.
For data set [7], the target named is non-mitochondrial citrate synthase (nmCS) of C. fasciculata (C. fasciculata). As to the kind of experiment: mass photometry; self-assembly of the purified protein in solution; final concentration 12.5 to 50 nM; PBS or 20 mM Tris, 200 mM NaCl pH 7.5; OneMP or TwoMP.
Data set [8] deals with non-mitochondrial citrate synthase (nmCS) of Chlamydomonas reinhardtii (Chlamydomonas reinhardtii). Described as above.
The target in data set [9] is type II citrate synthase of C. woesi (C. woesi). The data set is described as above.
Data set [10] concerns the target type II citrate synthase of F. taffensis (F. taffensis). The data set is described as above.
Substrate in data set [11]: O=C(O)CC(=O)C(=O)O
As to the kind of experiment: purified protein. It counts as biochemical, Methylophaga sulfidovorans. The conditions noted are these: 50 mM Tris pH 7.5, 10 mM KCl, 25 °C, 25 nM enzyme, varied substrate not named in main text.

Substrate in data set [12]: O=C(O)CC(=O)C(=O)O
Briefly: purified protein. It counts as biochemical, Deinococcus pimensis. The settings on record: 50 mM Tris pH 7.5, 10 mM KCl, 25 °C, 25 nM enzyme, unseparated sample, varied substrate not named in main text.

Data set [13] deals with the molecule itself. As to the kind of experiment: mass photometry; self-assembly of the purified protein in solution; final concentration 12.5 to 50 nM; PBS or 20 mM Tris, 200 mM NaCl pH 7.5; OneMP or TwoMP.

Where “and” joins values, the source holds several entries; their conditions need not be identical. Equal entries are not always repeated.

T1 sequence (A0A6P5F0R3 entry or part of it): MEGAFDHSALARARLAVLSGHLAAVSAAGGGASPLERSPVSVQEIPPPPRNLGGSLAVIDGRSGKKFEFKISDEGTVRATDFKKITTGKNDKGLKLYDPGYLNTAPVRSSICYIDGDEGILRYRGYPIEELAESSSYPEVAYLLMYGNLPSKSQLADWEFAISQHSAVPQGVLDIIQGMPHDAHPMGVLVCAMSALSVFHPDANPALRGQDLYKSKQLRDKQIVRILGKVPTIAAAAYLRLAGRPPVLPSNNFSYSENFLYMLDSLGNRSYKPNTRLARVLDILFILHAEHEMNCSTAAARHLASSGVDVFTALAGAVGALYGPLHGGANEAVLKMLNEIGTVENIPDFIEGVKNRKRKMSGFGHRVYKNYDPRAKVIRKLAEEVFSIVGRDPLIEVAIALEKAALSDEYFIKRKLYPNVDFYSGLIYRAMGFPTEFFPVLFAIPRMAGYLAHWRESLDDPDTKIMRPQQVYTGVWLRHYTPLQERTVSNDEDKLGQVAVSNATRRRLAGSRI

With `CC(=O)SCCNC(=O)CCNC(=O)[C@H](O)C(C)(C)COP(=O)(O)OP(=O)(O)OC[C@H]1O[C@@H](n2cnc3c(N)ncnc32)[C@H](O)[C@@H]1OP(=O)(O)O` [acetyl-CoA], the “mass photometry, oligomeric state shift” value in data set [1] is recorded as “shift the oligomeric state of the CS from A. comosus from octamers”.

What is called stoichiometry N is the number of molecules, sites or subunits per partner or assembly. As to CS from a Myxococcota species (enzyme), in data set [2], the stoichiometry N was found to be 2. Take “citrate synthase (type III CS) from M. sulfidovorans (enzyme)”: the stoichiometry N in data set [3] is 6. In [4], “citrate synthase from M. sulfidovorans W150A (enzyme)” came in with a stoichiometry N of 2. “non-mitochondrial citrate synthase (nmCS) of Ananas comosus (enzyme)”: the stoichiometry N is 8 in data set [5]; 6 and 8 in data set [6]. For the molecule “non-mitochondrial citrate synthase (nmCS) of C. fasciculata (enzyme)”, the stoichiometry N in data set [7] came to 6. In data set [8], “non-mitochondrial citrate synthase (nmCS) of Chlamydomonas reinhardtii (enzyme)” yielded a stoichiometry N of 2. Molecule “type II citrate synthase of C. woesi (enzyme)” yielded a stoichiometry N in [9] of 2. Turning to “type II citrate synthase of F. taffensis (enzyme)”, the stoichiometry N in data set [10] is 2.

B1: CS from M. sulfidovorans (type III) (Methylophaga sulfidovorans) (protein)
chain: MSDFLPGLEGVPATKSAISFIDGEKGILSYRGYPLETLAENSTFEETTLLLLDGELPTKKALNDFSQQLKDNYRIKYHIRQMMRHFPHTGHPMDMLQTAVSSLGMFYPGTECLTDANSCEDLDYVRNMTVNIIAQMAPLVAMWEHIRNGWDPVNPKHDLSVAENLLYMFNGEEPDPLMAKIMDVCLILHAEHTLNASTFAALVAGSTLATPYSVISAAIGTLSGPLHGGANQRVVGMLQEIGSPKNVESWVDEKLKNKEVIWGMGHREYKVKDPRATILHKLVEQLVAERGGHLDDMFDTALKLEEVCADRLGHKGVYPNVDFYSGILYSEMGIPEDEFTALFAVARSAGWLAHWREQISDNRIYRPTQIYVGSDMRDYTPIEER
notes: full-length with C-terminal LE-HHHHHH tag, expressed in E. coli BL21(DE3); type III CS, hexamer (three dimers)
A word on the Km: it is the concentration of substrate that gives half-maximal velocity. In general, kcat refers to the maximal rate divided by the concentration of active sites. With B1, in the data set “purified protein [11]”, the Km is 50.5 ± 5.2 µM and the turnover number (kcat) is 33.3 ± 1.8 s⁻¹.

B2: CS from M. sulfidovorans (type III) (Methylophaga sulfidovorans; W150A) (protein)
chain: MSDFLPGLEGVPATKSAISFIDGEKGILSYRGYPLETLAENSTFEETTLLLLDGELPTKKALNDFSQQLKDNYRIKYHIRQMMRHFPHTGHPMDMLQTAVSSLGMFYPGTECLTDANSCEDLDYVRNMTVNIIAQMAPLVAMWEHIRNGADPVNPKHDLSVAENLLYMFNGEEPDPLMAKIMDVCLILHAEHTLNASTFAALVAGSTLATPYSVISAAIGTLSGPLHGGANQRVVGMLQEIGSPKNVESWVDEKLKNKEVIWGMGHREYKVKDPRATILHKLVEQLVAERGGHLDDMFDTALKLEEVCADRLGHKGVYPNVDFYSGILYSEMGIPEDEFTALFAVARSAGWLAHWREQISDNRIYRPTQIYVGSDMRDYTPIEER
notes: as for B1
As for B2, in “purified protein [11]” (dimeric variant), the Michaelis-Menten constant (Km) is listed as 36.7 ± 5.7 µM and the turnover number (kcat) is 26.7 ± 1.1 s⁻¹.

B3: CS from D. pimensis (Dp) (Deinococcus pimensis) (protein)
chain: MTTTIAKGLEGVLFTETKLTFINGTEGVLTHLGIPIQEWAEKSTFEELSFALLHGKLPTREELAAFDADLKANRAVPAELITAIRAYPRDVHPMQALRTAASHLGLLDADAEDTSAEGRYRIGVRMIAQFSTIIAAIARAQDGQDPVEPRADLTHAGNFLYMLNGQEPSAEQARLFDIALILHADHGMNASTFTAIATASTLSDMYSSVVSAIGALKGPLHGGANEAVMDMLDEIGTVDAAVPFITQKLDNKEKIMGVGHRVYKYFDPRSRVLRDYAAHVSEKQGKSHYYSILETIEKEIVERLGGKGIYPNVDFYSGVVYSDLGIKKSFFTPIFALARISGWVASVTEYTANNRLLRPDAVYVGARDQHYVEIDERK
notes: full-length with C-terminal LE-HHHHHH tag, expressed in E. coli BL21(DE3); type I CS, polydisperse oligomer (dimers to >=8 subunits)
Regarding B3, in “purified protein [12]”, the Michaelis constant (Km) was determined as 25.4 ± 3.1 µM and the catalytic constant (kcat) came to 36.6 ± 1.1 s⁻¹.

B4: non-mitochondrial citrate synthase (nmCS) of P. olsenii (enzyme)
chain: MDRLNTVAAHVAPTLTITDNRSGKKIDVKVKDGTIRATDLKQLGIQTYDPGYMNTTCCVSRISFIDGNRGVLRYRGYPIEQLAQDSSFTEVAFLLQYGELPTRGQLTQWEQDLMRHSMLHQDVATLTSAFRYDAHPMGMFVSAMAALGTLHPETNPALTSQNIYKDKAVRNKEIARILGSATTLAAMAYRHRMGRPFNTPNSDLGYTENFLYMLDVSHEGTSYRPHPKLVKALDVLFVLHAEHELNCSTSAMRHLTSSNVDVYTACAAAAGALYGPRHGGANEAVLRMLERIGSIENVPTFVDKVKQRKELLMGFGHRVYKHYDPRATIVRKIAEDVFEICGREPLIEVAMDLERIALSDPYFKDRKLYPNVDFYSGLIYKAMGFPTDMFPILFTVPRLAGWLAHWSEWIDDPENRIYRPFQVYKGYDKRDYVQVDERSEKVHSKELTVKRSAFNRRRDASLQSAAADRSEYEWIKD
For B4, the “stoichiometry N” value in data set [13] turned out to be 6.

B5: A. comosus CS Δ487-513, variant in which the extended C-terminus was deleted (domain or fragment)
chain: MEGAFDHSALARARLAVLSGHLAAVSAAGGGASPLERSPVSVQEIPPPPRNLGGSLAVIDGRSGKKFEFKISDEGTVRATDFKKITTGKNDKGLKLYDPGYLNTAPVRSSICYIDGDEGILRYRGYPIEELAESSSYPEVAYLLMYGNLPSKSQLADWEFAISQHSAVPQGVLDIIQGMPHDAHPMGVLVCAMSALSVFHPDANPALRGQDLYKSKQLRDKQIVRILGKVPTIAAAAYLRLAGRPPVLPSNNFSYSENFLYMLDSLGNRSYKPNTRLARVLDILFILHAEHEMNCSTAAARHLASSGVDVFTALAGAVGALYGPLHGGANEAVLKMLNEIGTVENIPDFIEGVKNRKRKMSGFGHRVYKNYDPRAKVIRKLAEEVFSIVGRDPLIEVAIALEKAALSDEYFIKRKLYPNVDFYSGLIYRAMGFPTEFFPVLFAIPRMAGYLAHWRESLDDPDTKIMRPQQVYTGVWLRHYTPLQERLEHHHHHH
Take B5: in data set [13], the “stoichiometry N” value was determined as 2.

Source of the values: PMC11615384, “Frequent transitions in self-assembly across the evolution of a central metabolic enzyme” (Nature Communications, 2024).
